Data on 1 substance can be found in publication PMC6005519, “Reconstitution and functional studies of hamster P-glycoprotein in giant liposomes” (PLoS ONE, 2018).

The subject of this series is T1, Nc1ncnc2c1ncn2[C@@H]1O[C@H](COP(=O)(O)OP(=O)(O)OP(=O)(O)O)[C@@H](O)[C@H]1O.
T1 construct: Purified Pgp extracted from Chinese Hamster Ovary B30 cells, reconstituted in giant liposomes
As to the kind of experiment: Km of ATP from Rho123 transport rates in giant proteoliposomes; colorimetric ATPase assay. The series is classed as biochemical, Cricetulus griseus.

Chain of P-glycoprotein (Pgp, ABCB1) (Cricetulus griseus) (chain, as listed by the source): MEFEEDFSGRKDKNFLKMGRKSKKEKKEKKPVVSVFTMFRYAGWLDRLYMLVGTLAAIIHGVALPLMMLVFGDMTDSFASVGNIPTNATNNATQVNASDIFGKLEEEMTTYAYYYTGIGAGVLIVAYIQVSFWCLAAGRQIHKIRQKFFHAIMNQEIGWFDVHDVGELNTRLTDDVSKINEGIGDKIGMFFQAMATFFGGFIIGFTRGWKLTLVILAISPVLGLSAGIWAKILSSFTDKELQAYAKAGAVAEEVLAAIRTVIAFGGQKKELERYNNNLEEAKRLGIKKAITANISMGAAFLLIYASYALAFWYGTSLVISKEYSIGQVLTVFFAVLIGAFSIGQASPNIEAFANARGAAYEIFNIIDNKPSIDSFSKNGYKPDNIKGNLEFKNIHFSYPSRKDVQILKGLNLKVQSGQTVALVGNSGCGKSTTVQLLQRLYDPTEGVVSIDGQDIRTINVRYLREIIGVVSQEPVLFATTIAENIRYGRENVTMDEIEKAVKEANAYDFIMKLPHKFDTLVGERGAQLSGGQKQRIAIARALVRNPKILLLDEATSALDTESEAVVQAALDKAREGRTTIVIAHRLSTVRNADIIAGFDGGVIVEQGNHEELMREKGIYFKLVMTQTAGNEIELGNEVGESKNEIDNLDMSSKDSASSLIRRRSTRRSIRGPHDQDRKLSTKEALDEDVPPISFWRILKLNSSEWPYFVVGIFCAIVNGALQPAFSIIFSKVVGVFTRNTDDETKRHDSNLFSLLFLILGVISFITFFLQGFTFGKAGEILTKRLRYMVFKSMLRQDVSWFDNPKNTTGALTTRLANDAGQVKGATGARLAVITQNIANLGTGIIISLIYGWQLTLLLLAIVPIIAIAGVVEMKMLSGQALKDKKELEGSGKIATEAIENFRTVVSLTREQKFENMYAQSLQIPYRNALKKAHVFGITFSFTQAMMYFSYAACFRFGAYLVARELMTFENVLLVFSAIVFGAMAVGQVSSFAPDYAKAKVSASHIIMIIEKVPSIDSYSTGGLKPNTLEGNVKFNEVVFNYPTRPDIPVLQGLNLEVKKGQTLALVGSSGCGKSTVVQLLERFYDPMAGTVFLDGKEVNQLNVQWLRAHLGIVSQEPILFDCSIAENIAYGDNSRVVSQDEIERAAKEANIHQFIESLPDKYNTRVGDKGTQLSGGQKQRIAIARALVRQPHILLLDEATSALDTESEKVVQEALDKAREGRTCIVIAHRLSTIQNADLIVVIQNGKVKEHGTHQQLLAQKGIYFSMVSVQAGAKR

The Km is the substrate concentration at which the rate is half of its maximum. In the case of “P-glycoprotein (Pgp, ABCB1) (Cricetulus griseus)”, the Km is 420 ± 750 µM.
